Measurements reported in patent US11976099B2, “Compositions and methods for treatment of bone associated diseases” (THE NATIONAL INSTITUTE FOR BIOTECHNOLOGY IN THE NEGEV LTD., priority 2016, dated 2024).
Values belong to the molecule of their own block, whether it stands above or below them.

How the values were obtained:
[1] = test system: Murine bone marrow derived monocytes (BMMs); test: Direct cell binding assay, flow cytometry, murine primary cells; format: cell-based, mouse; details: for direct cell binding: mouse primary cells, 1 μM, 2.5 μM and 7.5 μM
Experimental: Murine bone marrow derived monocytes (BMMs) were obtained by flushing the bone marrow from the femur and tibia of WT C57BL6 mice. The cells were treated with ACK red lysis buffer (Thermo Fisher Scientific, USA) and plated on bacterial culture dishes in αMEM growth medium (Biological Industries, Israel) containing recombinant murine M-CSF (40 ng/ml) (R&D systems, USA). The cells were incubated for 3 days at 37° C. under 5% CO2 to induce monocyte adhesion and proliferation. The plates were washed with PBS, the cells were detached using a cell scraper, and 10^5 cells were transferred to each well in a 96-well plate. The cells were washed twice with 200 μl of 0.1% PBSA. Binding was determined as described for labeled M-CSFM and the M-CSFRGD proteins. For murine c-FMS expression, anti-mouse CD115 (CSF-1R) (BioLegend, USA) was used at 1:50 concentration and detected with goat anti-rat (PE) antibody (Abcam, USA). For αvβ3 integrin expression, the Alexa Fluor® 488 anti-mouse/rat CD61 (BioLegend, USA) antibody was used as previously described. Samples were analyzed with Accuri C6 flow cytometry analyzer (BD Biosciences, USA). The experiment was repeated three times at each concentration.
Assays for direct cell binding were conducted on breast cancer cell line MDA-MB-231 and murine primary cells with flow cytometer. MDA-MB-231 was used because the cells express αvβ3 integrin and c-FMS on the cell membrane, a protein expression pattern that imitates the osteoclast state just before reaching full differentiation and maturation. […] Murine primary cells that were obtained from bone marrow were tested for binding without any induction of differentiation (t=0). Such cells express high levels of c-FMS and low levels of αvβ3 integrin (FIGS. 11A and 11B), a state that imitates an early osteoclast differentiation stage.

c-kit receptor = c-kit receptor (Homo sapiens, UniProt P10721); test: YSD binding specificity test against c-kit receptor; details: even at high concentrations of 200 nM; data not shown
Chain of c-kit receptor (P10721 26-976): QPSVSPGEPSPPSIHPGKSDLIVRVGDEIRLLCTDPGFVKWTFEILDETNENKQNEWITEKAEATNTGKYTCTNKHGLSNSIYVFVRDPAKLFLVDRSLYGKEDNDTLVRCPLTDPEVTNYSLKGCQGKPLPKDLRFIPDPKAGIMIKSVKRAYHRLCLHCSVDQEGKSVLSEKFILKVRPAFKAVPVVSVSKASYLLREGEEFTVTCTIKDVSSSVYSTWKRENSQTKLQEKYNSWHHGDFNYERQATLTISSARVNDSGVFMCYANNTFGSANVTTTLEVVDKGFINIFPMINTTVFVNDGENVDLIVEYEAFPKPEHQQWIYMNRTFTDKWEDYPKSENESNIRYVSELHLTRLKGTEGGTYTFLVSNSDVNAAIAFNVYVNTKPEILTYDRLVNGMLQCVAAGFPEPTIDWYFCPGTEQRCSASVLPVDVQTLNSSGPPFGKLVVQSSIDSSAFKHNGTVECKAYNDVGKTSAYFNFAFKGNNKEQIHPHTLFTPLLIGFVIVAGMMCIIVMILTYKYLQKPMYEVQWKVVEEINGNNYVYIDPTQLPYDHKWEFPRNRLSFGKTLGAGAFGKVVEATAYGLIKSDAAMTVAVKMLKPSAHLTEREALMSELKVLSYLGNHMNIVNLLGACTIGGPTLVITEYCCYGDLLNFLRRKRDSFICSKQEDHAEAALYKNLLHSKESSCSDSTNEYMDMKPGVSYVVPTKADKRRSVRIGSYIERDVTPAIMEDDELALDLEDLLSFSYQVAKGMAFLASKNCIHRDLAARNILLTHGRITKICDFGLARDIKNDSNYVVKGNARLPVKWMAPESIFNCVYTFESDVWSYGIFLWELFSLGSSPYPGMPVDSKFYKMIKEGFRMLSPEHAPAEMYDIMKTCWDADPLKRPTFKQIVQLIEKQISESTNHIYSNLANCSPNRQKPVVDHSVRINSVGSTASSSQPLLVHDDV
Experimental: Next, a binding specificity of the M-CSFM to c-FMS was evaluated. For this purpose, the ability of M-CSFM to bind a c-kit receptor, which is a c-FMS structural homolog, was utilized.

αvβ3 integrin = target: T1, αvβ3 integrin (Homo sapiens, UniProt P05106+P06756, DEL719-788); test: YSD binding of M-CSFM to αvβ3 integrin; details: even at high concentrations of 200 nM
T1 construct: purchased R&D Systems
T1 sequence (P06756 31-992 limits assumed, stated change not applied): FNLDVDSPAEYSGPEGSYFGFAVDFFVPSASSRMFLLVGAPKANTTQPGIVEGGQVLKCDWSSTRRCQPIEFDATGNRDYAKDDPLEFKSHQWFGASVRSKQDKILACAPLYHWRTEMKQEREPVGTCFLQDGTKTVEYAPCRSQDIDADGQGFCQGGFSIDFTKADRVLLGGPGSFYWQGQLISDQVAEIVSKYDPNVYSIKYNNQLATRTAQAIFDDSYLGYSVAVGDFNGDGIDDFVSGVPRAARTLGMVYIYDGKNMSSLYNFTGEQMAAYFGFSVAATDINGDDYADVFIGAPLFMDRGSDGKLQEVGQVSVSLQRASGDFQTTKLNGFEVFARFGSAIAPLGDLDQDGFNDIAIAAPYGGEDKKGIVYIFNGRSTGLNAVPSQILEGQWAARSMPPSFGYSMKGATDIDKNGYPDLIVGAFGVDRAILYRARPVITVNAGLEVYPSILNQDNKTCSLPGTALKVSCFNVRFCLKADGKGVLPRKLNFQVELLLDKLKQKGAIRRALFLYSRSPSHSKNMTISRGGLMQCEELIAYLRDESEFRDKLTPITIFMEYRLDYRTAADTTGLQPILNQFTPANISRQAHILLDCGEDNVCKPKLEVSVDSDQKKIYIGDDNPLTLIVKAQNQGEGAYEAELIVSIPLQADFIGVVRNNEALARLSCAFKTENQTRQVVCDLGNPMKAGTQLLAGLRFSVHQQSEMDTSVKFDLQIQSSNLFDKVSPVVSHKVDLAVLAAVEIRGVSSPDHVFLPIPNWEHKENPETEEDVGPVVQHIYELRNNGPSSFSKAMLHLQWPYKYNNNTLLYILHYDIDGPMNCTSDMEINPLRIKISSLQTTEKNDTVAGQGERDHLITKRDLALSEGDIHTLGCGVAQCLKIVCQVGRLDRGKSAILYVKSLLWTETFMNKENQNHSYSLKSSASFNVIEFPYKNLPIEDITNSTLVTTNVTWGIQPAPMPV
T1 sequence (P05106 27-718 limits assumed, stated change not applied): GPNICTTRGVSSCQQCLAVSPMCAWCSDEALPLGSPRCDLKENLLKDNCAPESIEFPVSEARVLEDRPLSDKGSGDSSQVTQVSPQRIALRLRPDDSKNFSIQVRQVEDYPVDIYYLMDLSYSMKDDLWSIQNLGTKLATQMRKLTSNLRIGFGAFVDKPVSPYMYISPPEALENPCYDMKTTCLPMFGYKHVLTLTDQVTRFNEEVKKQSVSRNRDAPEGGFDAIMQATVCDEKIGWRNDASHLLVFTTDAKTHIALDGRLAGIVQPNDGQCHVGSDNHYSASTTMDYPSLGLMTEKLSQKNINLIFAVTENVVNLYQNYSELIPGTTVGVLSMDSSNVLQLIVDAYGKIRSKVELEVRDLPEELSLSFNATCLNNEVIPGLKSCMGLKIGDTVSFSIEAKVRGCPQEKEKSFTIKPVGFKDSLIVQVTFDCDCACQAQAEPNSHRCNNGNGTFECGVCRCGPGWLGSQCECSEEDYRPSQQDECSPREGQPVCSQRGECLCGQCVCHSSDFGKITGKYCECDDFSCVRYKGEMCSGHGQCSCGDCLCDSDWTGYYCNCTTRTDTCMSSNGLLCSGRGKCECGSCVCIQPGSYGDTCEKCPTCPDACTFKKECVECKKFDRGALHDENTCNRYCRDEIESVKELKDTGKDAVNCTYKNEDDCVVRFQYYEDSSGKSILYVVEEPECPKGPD
Experimental: For expressing the M-CSFM gene and the two M-CSFRGD libraries on the yeast surface, the SDCAA medium was replaced by SGCAA medium (2% galactose, 0.67% yeast nitrogen base, 0.5% bacto casamino acids, 1.47% sodium citrate, 0.429% citric acid monohydrate) and the yeasts were incubated overnight at 30° C. until the culture reached OD600=10.0 (10^8 cells per ml). A number of cells equal to ten times the library size was added to 1 ml of PBS containing 1% bovine serum albumin (PBSA); the suspension was centrifuged, and the supernatant was removed. For binding analysis of M-CSFM and the M-CSFRGD libraries to c-FMS, yeast cells were incubated with mouse anti c-myc antibody, 9E10 (Abcam, Cambridge, MA, USA) in a 1:50 ratio and different concentrations of soluble Fc conjugated human c-FMS (R&D systems, USA) for 1 h at room temperature. After an additional washing step, cells were labeled with secondary PE anti mouse (Sigma-Aldrich, St. Louis, MO, USA) and goat anti human Fc FITC antibodies (Sigma-Aldrich) for 30 min at 4° C. in the dark. For binding analysis of M-CSFRGD libraries to integrin, the experiment was performed with integrin binding buffer (IBB; 20 mM Tris, pH7.5, 2 mM CaCl2, 100 mM NaCl, 1 mM MgCl2, and 1 mM MnCl2)+1% BSA. The yeast cells were incubated with chicken anti c-myc and different concentrations of soluble human αvβ3 integrin (R&D Systems, Minneapolis, MN, USA) for 1 h. […]

mature osteoclasts = test: Actin ring formation in mature osteoclasts; format: cell-based, mouse; details: inhibitors 5 μM added to mature osteoclasts for 24 h; F-actin staining
Experimental: FIG. 23 are example pictures showing Actin ring formation in mature osteoclasts incubated with M-CSFRGD variants. Murine BMMs were allowed to differentiate into osteoclasts in the presence of M-CSF and RANKL for 72 h. Then, the cells were incubated for additional 24 h without (positive control) or with inhibitors (5 μM) followed by fixation and staining for F-actin and nuclei. Cells were able to form a solid actin ring (white arrowheads), scattered actin ring (white arrows) or amorphous actin distribution (barbed arrowheads). Pictures are representatives of 35 images acquired from five different wells per sample.
For a mature osteoclast to resorb bone properly, it must form unique structure termed “sealing zone”; this structure consists of an actin ring made from a dense actin mesh connected by adhesion complexes called podosomes. The formation of the actin ring involves several stages: at the beginning, podosomes are formed throughout the cell in a scattered manner, then groups of podosomes form small actin structures named belts and upon osteoclast maturation, the belts are moving to the cell periphery, cluster, and form the actin ring. Podosomes contain high levels of αvβ3 integrin which is essential for the formation of a proper actin ring with condensed podosome network. […]

binding to c-kit receptor (c-kit receptor): did not bind | binding to αvβ3 integrin (αvβ3 integrin): did not bind
B1: M-CSFM: 158 amino acid M-CSF with cysteine at position 31 replaced by serine (SEQ ID NO: 2) (protein)
chain: EEVSEYCSHMIGSGHLQSLQRLIDSQMETSSQITFEFVDQEQLKDPVCYLKKAFLLVQDIMEDTMRFRDNTPNAIAIVQLQELSLRLKSCFTKDYEEHDKACVRTFYETPLQLLEKVKNVFNETKNLLDKDWNIFSKNCNNSFAECSSQGHERQSEGS
direct cell binding [1]: binding in a dose dependent manner | relative cell binding ([1]; no induction of differentiation (t=0)): stronger cell binding than 5.6 and 4.22

B2: 5.6: bispecific M-CSFRGD variant from sort five; M-CSFM loop replaced by XXXRGDXXX motif; binds c-FMS and αvβ3 integrin (protein)
chain: EEVSEYCSHMIGSGHLQSLQRLIDTYPRGDMCSITFEFVDQEQLKDPVCYLKKAFLLVQDIMEDTMRFRDNTPNAIAIVQLQELSLRLKSCFTKDYEEHDKACVRTFYETPLQLLEKVKNVFNETKNLLDKDWNIFSKNCNNSFAECSSQGHERQSEGS
modifications: left off: small tags and cut ends
direct cell binding [1]: binding in a dose dependent manner | actin ring formation (mature osteoclasts): showed the same phenotype as cRGD and M-CSFαvβ3
